Source: patent publication US20180142032A1 (Sanofi, published 2018)

Experiments:
[1] = biological target: T1, mLAMP1_hseq6-9-11_ΔGYQTI (mouse; human, UniProt P11438 25-369); assay: flow cytometry, transfected 293-F cells, experiment 2
T1 construct: on cells; numbering read as for pXL6041; also called pXL6092; not shown: murine transmembrane domain and cytoplasmic tail with GYQTI replaced by 5 Ala
T1 chain: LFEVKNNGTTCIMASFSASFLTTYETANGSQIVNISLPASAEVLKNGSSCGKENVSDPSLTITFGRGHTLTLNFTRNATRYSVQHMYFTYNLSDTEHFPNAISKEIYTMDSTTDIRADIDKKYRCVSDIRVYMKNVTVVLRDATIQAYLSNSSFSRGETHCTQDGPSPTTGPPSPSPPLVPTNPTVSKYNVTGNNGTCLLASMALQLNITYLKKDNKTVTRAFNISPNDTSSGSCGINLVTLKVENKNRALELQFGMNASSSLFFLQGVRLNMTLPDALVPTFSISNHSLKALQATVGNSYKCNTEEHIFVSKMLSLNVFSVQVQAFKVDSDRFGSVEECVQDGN

[2] = biological target: T2, mLAMP1_ΔGYQTI (mouse, UniProt P11438 25-369); assay: as above
T2 construct: on cells; also called pXL6009; murine LAMP1; not shown: murine transmembrane domain and cytoplasmic tail with GYQTI replaced by 5 Ala
T2 sequence: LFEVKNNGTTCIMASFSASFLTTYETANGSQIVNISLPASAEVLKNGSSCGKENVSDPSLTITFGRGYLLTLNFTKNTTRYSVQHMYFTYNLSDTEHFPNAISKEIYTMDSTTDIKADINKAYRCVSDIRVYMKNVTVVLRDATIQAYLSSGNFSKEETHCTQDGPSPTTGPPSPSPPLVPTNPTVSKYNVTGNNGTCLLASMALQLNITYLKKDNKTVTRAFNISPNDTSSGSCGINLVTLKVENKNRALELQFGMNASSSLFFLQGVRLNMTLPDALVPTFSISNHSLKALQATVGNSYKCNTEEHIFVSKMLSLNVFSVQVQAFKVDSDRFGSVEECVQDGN

[3] = biological target: T3, mLAMP1_hseq11_ΔGYQTI (mouse; human, UniProt P11438 25-369); assay: as above
T3 construct: on cells; numbering read as for pXL6041; also called pXL6048; not shown: murine transmembrane domain and cytoplasmic tail with GYQTI replaced by 5 Ala
T3 chain: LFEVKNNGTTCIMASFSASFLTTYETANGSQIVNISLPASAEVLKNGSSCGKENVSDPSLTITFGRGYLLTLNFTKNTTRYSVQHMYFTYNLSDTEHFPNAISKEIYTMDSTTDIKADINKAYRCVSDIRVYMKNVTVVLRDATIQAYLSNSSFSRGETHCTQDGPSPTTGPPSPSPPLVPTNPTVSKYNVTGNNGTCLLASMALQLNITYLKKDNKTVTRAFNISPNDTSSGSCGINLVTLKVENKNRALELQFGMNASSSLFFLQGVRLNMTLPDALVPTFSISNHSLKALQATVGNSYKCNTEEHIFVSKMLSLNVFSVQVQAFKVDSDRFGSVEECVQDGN

[4] = biological target: T4, mLAMP1_hseq6_ΔGYQTI (mouse; human, UniProt P11438 25-369); assay: as above
T4 construct: on cells; numbering read as for pXL6041; also called pXL6047; not shown: murine transmembrane domain and cytoplasmic tail with GYQTI replaced by 5 Ala
T4 chain: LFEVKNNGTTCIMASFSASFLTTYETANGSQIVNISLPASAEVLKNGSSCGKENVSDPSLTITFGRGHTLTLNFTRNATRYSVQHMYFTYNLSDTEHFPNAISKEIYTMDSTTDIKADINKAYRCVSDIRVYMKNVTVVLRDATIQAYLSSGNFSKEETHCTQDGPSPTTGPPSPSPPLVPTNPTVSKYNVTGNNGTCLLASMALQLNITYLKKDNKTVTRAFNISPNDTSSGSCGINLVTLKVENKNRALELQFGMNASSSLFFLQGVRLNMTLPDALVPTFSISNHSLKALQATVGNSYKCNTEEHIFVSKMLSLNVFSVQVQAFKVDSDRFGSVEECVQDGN

[5] = biological target: T5, cynomolgus monkey LAMP1 at the cell surface (cynomolgus monkey, UniProt P11279 29-417 (human entry)); assay: flow cytometry, transiently transfected HEK293 cells
T5 construct: also called cynoLAMP1; cynomolgus LAMP1
T5 chain: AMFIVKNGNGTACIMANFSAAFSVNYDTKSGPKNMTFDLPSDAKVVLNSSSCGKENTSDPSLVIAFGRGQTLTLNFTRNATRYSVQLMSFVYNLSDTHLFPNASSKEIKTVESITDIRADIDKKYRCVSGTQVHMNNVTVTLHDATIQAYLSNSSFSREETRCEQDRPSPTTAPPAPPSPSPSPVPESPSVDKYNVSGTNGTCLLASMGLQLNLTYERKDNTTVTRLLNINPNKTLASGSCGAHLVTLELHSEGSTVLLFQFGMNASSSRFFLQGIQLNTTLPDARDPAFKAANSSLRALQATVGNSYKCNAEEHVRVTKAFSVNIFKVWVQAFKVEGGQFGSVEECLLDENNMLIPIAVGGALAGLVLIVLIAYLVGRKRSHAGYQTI
Description: LAMP1 Coding DNA Sequence, RefSeq NM_005561.3 (SEQ ID NO: 23) was cloned internally. The CDS of Macaca mulatta LAMP1, RefSeq XP_001087801 (SEQ ID NO: 27) was also cloned internally. […] Therefore the secreted LAMP1 used in the following example is referred to cynomolgus monkey. Both CDS were cloned into mammalian expression plasmids under CMV enhancer/promoter and SV40 polyA signals. HEK293 cells (Invitrogen; #K9000-10.) were transiently transfected with human LAMP1 or cynomolgus LAMP1 plasmids using FreeStyle™ MAX 293 Expression System according to the manufacturer's instructions. […] 100 μL/well of goat anti-mouse IgG conjugated with Alexa647 (Invitrogen; # A2135) was added for 45 min at 4° C. and washed three times with PBS 1% BSA. The antibody binding was evaluated after centrifugation and resuspension of cells by adding 200 μl/well PBS 1% BSA and read using Guava® easyCyte™ 8HT Flow Cytometry System. EC50 values were estimated using BIOST@T-SPEED software.

- mean fluorescence [1]: 499
- mean fluorescence [2]: 2
- mean fluorescence [3]: 2
- mean fluorescence [4]: 3
- EC50 [5]: 44 nM
B1: MAb1 (antibody, mouse IgG2a, kappa)
heavy: QVQLQQSGAELVKPGASVKMSCKASGYIFTNYNIHWVKKSPGQGLEWIGAIYPGNGDAPYSQKFKDKATLTADKSSSTTYMQLSRLTSEDSAVYYCVRANWDVAFAYWGQGTLVSVSAAKTTAPSVYPLAPVCGDTTGSSVTLGCLVKGYFPEPVTLTWNSGSLSSGVHTFPAVLQSDLYTLSSSVTVTSSTWPSQSITCNVAHPASSTKVDKKIEPRGPTIKPCPPCKCPAPNLLGGPSVFIFPPKIKDVLMISLSPIVTCVVVDVSEDDPDVQISWFVNNVEVHTAQTQTHREDYNSTLRVVSALPIQHQDWMSGKEFKCKVNNKDLPAPIERTISKPKGSVRAPQVYVLPPPEEEMTKKQVTLTCMVTDFMPEDIYVEWTNNGKTELNYKNTEPVLDSDGSYFMYSKLRVEKKNWVERNSYSCSVVHEGLHNHHTTKSFSRTPGK
light: DIQMTQSPPSLSASLGGKVTITCKASQDIDRYMAWYQDKPGKGPRLLIHDTSTLQPGIPSRFSGSGSGRDYSFSISNLEPEDIATYYCLQYDNLWTFGGGTKLEIKRADAAPTVSIFPPSSEQLTSGGASVVCFLNNFYPKDINVKWKIDGSERQNGVLNSWTDQDSKDSTYSMSSTLTLTKDEYERHNSYTCEATHKTSTSPIVKSFNRNEC
notes: murine monoclonal IgG, kappa, from hybridoma; also called murine MAb1
